Substitutions are numbered along the chain they refer to. Numbers in names are those of the source. Blank lines part the entries; values can stand above or below the binder they belong to.
Tests used:
[1] = biological target: T1, recombinant cynomolgus PDGF-BB (cynomolgus monkey, UniProt P01127 82-190 (human entry), limits assumed); experiment: cell-based or functional assay
T1 chain: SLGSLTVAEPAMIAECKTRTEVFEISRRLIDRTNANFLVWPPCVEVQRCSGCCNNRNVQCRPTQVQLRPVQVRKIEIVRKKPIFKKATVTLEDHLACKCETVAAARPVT

recombinant rat PDGF-BB = recombinant rat PDGF-BB (rat, UniProt Q05028 74-182); experiment: cell-based or functional assay
[2] = biological target: recombinant murine PDGF-BB (mouse, UniProt P31240 82-190); experiment: cell-based or functional assay
[3] = biological target: recombinant human PDGF-BB (human, UniProt P01127 82-190); experiment: cell-based or functional assay
[4] = biological target: T2, recombinant human VEGF-A 165 (human, UniProt P15692 207-395); experiment: receptor competition ELISA, biotinylated hVEGF165 binding to coated hVEGF-R2-Fc
T2 construct: also called huVEGF-A165; hVEGF165
Method: To identify molecules that could block the binding of hVEGF₁₆₅ to the hVEGF-R2 (KDR/Flk-1) receptor, a competition ELISA was performed. […] Plates were then washed four times with wash buffer (TBS, 0.05% Tween-20) and blocked with Superblock blocking buffer (Thermo Scientific, cat#37535). […] The pre-incubated sample/hVEGF₁₆₅ complex was added to the coated plate at 50 μL in duplicate and incubated for 30 minutes at 25° C. with shaking. Following incubation, plates were washed four times with wash buffer. Streptavidin-polyHRP-40 (Fitzgerald cal#65r-s104phrp) was diluted in assay diluent (10% Superblock containing 0.05% surfactamps) and added to plates (50 μL) for 45 minutes at 25° C. with shaking. Plates were washed four times with wash buffer and developed with the addition of Enhanced K-blue TMB substrate (Neogen cat#308177). The reaction was stopped with 2N sulfuric acid (VWR, cat# BDH3500-1) and the absorbance was read at 450 nm-570 nm. A decrease in observed optical density indicates the test molecule is blocking the hVEGF₁₆₅ binding to the hVEGF-R2-Fc. Data was analyzed using Softmax Pro 4.8 software and IC₅₀ values calculated using a sigmoidal dose response (variable slope) fit in GraphPad Prism 5.
Anti-VEGF-A antibodies derived from rat hybridomas were characterized for binding, function and cross-reactivity in a panel of assays. Supernatants were tested for the ability to bind hVEGF₁₆₅ (Example 1.3) and block binding of hVEGF₁₆₅ to hVEGFR2 in a competition ELISA format (Example 1.4).

Chain of recombinant murine PDGF-BB (P31240 82-190 limits assumed): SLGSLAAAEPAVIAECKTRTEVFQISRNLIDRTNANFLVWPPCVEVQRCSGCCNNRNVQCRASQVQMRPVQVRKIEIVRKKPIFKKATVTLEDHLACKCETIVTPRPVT
T2 sequence (P15692 other isoform, or with tags, fused parts or gaps limits assumed): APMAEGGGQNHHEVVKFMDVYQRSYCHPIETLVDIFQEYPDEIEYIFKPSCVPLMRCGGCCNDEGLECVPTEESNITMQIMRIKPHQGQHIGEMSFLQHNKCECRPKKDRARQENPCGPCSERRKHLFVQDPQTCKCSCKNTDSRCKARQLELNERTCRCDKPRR
Chain of recombinant rat PDGF-BB (Q05028 74-182 limits assumed): as the sequence (P31240 82-190 limits assumed) above, with I83V, I102V counted along it

B1: 4G8.3-GS-9E8.4 (g) anti-VEGF-A/anti-PDGF-BB DVD-Ig (PR-1572102) (bispecific antibody, human IgG1, kappa, L234A L235A)
heavy: EVQLVQSGSELKKPGASVKVSCKASGYTFTNYGMYWVRQAPGQGLEWMGWINTETGKPTYADDFKGRFVFSLDTSVSTAYLQISSLKAEDTAVYYCARTNYYYRSYIFYFDYWGQGTMVTVSSGGGGSGGGGSEVTLRESGPALVKPTQTLTLTCTFSGFSLSTYGMGVGWIRQPPGKALEWLANIWWDDDKYYNPSLKNRLTISKDTSKNQVVLTMTNMDPVDTATYYCARIESIGTTYSFDYWGQGTMVTVSSASTKGPSVFPLAPSSKSTSGGTAALGCLVKDYFPEPVTVSWNSGALTSGVHTFPAVLQSSGLYSLSSVVTVPSSSLGTQTYICNVNHKPSNTKVDKKVEPKSCDKTHTCPPCPAPEAAGGPSVFLFPPKPKDTLMISRTPEVTCVVVDVSHEDPEVKFNWYVDGVEVHNAKTKPREEQYNSTYRVVSVLTVLHQDWLNGKEYKCKVSNKALPAPIEKTISKAKGQPREPQVYTLPPSREEMTKNQVSLTCLVKGFYPSDIAVEWESNGQPENNYKTTPPVLDSDGSFFLYSKLTVDKSRWQQGNVFSCSVMHEALHNAYTQKSLSLSPGK
light: DTVLTQSPATLSLSPGERATLSCRASESVSTHMHWYQQKPGQAPRLLIYGASNLESGVPARFSGSGSGTDFTLTISSLEPEDFAVYFCQQSWNDPFTFGQGTKLEIKRGGSGGGGSGEFVLTQSPGTLSLSPGERATLSCERSSGDIGDSYVSWYQQKPGQAPRLVIYADDQRPSGIPDRFSGSGSGTDFTLTISRLEPEDFAVYYCQSYDINIDIVFGGGTKVEIKRTVAAPSVFIFPPSDEQLKSGTASVVCLLNNFYPREAKVQWKVDNALQSGNSQESVTEQDSKDSTYSLSSTLTLSKADYEKHKVYACEVTHQGLSSPVTKSFNRGEC
- Potency IC50 (nM) cynoPDGF-BB (NIH-3T3 proliferation) [1]: 0.139 nM
- Potency IC50 (nM) ratPDGF-BB (NIH-3T3 proliferation) (recombinant rat PDGF-BB): 2.2 nM
- Potency IC50 (nM) mPDGF-BB (NIH-3T3 proliferation) [2]: 0.174 nM
- Co-incubation Potency IC50 (nM) hPDGF-BB (NIH-3T3 proliferation, DVD-Ig pre-incubated with excess hVEGF165) [3]: 0.051 nM

B3: 4G8.3-LS-9E8.4 (g) anti-VEGF-A/anti-PDGF-BB DVD-Ig (PR-1572106) (bispecific antibody, human IgG1, kappa, L234A L235A)
heavy: EVQLVQSGSELKKPGASVKVSCKASGYTFTNYGMYWVRQAPGQGLEWMGWINTETGKPTYADDFKGRFVFSLDTSVSTAYLQISSLKAEDTAVYYCARTNYYYRSYIFYFDYWGQGTMVTVSSASTKGPSVFPLAPEVTLRESGPALVKPTQTLTLTCTFSGFSLSTYGMGVGWIRQPPGKALEWLANIWWDDDKYYNPSLKNRLTISKDTSKNQVVLTMTNMDPVDTATYYCARIESIGTTYSFDYWGQGTMVTVSSASTKGPSVFPLAPSSKSTSGGTAALGCLVKDYFPEPVTVSWNSGALTSGVHTFPAVLQSSGLYSLSSVVTVPSSSLGTQTYICNVNHKPSNTKVDKKVEPKSCDKTHTCPPCPAPEAAGGPSVFLFPPKPKDTLMISRTPEVTCVVVDVSHEDPEVKFNWYVDGVEVHNAKTKPREEQYNSTYRVVSVLTVLHQDWLNGKEYKCKVSNKALPAPIEKTISKAKGQPREPQVYTLPPSREEMTKNQVSLTCLVKGFYPSDIAVEWESNGQPENNYKTTPPVLDSDGSFFLYSKLTVDKSRWQQGNVFSCSVMHEALHNAYTQKSLSLSPGK
light: DTVLTQSPATLSLSPGERATLSCRASESVSTHMHWYQQKPGQAPRLLIYGASNLESGVPARFSGSGSGTDFTLTISSLEPEDFAVYFCQQSWNDPFTFGQGTKLEIKRTVAAPEFVLTQSPGTLSLSPGERATLSCERSSGDIGDSYVSWYQQKPGQAPRLVIYADDQRPSGIPDRFSGSGSGTDFTLTISRLEPEDFAVYYCQSYDINIDIVFGGGTKVEIKRTVAAPSVFIFPPSDEQLKSGTASVVCLLNNFYPREAKVQWKVDNALQSGNSQESVTEQDSKDSTYSLSSTLTLSKADYEKHKVYACEVTHQGLSSPVTKSFNRGEC
- Potency IC50 (nM) cynoPDGF-BB (NIH-3T3 proliferation) [1]: 0.094 nM
- Potency IC50 (nM) mPDGF-BB (NIH-3T3 proliferation) [2]: 0.14 nM

B6: BED-4G10-C8 (antibody, V domains shown)
VH: QVQLQQSGTELVKPGSSVKISCKASGYTFTSNYMHWIRQQPGNGLEWIGWIYPGDGDTNYNHNFNGKATLTADKSSSTAYMQLSSLTSEDFAVYFCASSTRAIPGWFTYWGQGTLVTVSS
VL: DTVLTQSPALAVSPGERVSISCWASESVSTLMHWYQQKLGQQPKLLIYGASNLESGVPARFRGSGSGTDFTLTIDPVEADDTATYFCQQSWSDPYTFGAGTKLELK
notes: Rat hybridoma anti-human VEGF-A monoclonal antibody, isotype IgG2b/kappa
- IC50 [4]: 130 pM

B7: BDB-4G8-D4 (antibody, V domains shown)
VH: QIQLVQSGPELKKPGESVKISCKASGYTFTNYGMYWVKQAPGQGLQYMGWINTETGKPTYADDFKGRFVFFLETSASTAYLQINNLKNEDMATYFCARTNYYYRSYIFYFDYWGQGTMVTVSS
VL: B6 VL with W23R, L31H, L39P, R62S, S92N, Y95F, G100V
notes: as for B6
- IC50 [4]: 130 pM

The remaining lines, values ahead:

- Potency IC50 (nM) cynoPDGF-BB (NIH-3T3 proliferation) [1]: 0.139 nM
- Potency IC50 (nM) ratPDGF-BB (NIH-3T3 proliferation) (recombinant rat PDGF-BB): 1.51 nM
- Potency IC50 (nM) mPDGF-BB (NIH-3T3 proliferation) [2]: 0.134 nM
- Co-incubation Potency IC50 (nM) hPDGF-BB (NIH-3T3 proliferation, DVD-Ig pre-incubated with excess hVEGF165) [3]: 0.032 nM
B2: hVEGF 4G8.3-GS-hPDGF 9E8.4 [hu IgG1/k] mut(234, 235) H435A (PR-1569574) (bispecific antibody)
heavy: B1 heavy
light: B1 light with R228G

- IC50 [4]: 127 pM
B4: BEW-9D2-E8 (antibody, V domains shown)
VH: QIQLVQSGPELKKPGESVKISCKASGYTFTNYGMYWVKLAPGQGLQYLGWINTETGKPTYADDFKGRFVFFLETSASTAYLQINNLRNEDMATYFCARPSDYYDGFWFAYWGQGTLVTVSS
VL: DTVLTQSPALTVSPGERVSISCRASEWVNSYMHWYQQNPGQQPKLLIYKASNLASGVPARFSGSGSGTDFTLTLDPVEADDTATYFCQQSWNDPLTFGSGTKLEIK
notes: Rat hybridoma anti-human VEGF-A monoclonal antibody, isotype IgG2a/kappa

- IC50 [4]: 124 pM
B5: BEW-3A1-D10-G9 (antibody, V domains shown)
VH: QVQLEQSGAELVKPGTSVKLSCMASGYTSSSNHMNWMKQTTGQGLEWIGIINPGSGGTRYNVKFEGKATLTVDKSSSTAFMQLNSLTPEDSAVYYCARAGFPGPFSYYAMGAWGQGTSVTVSS
VL: DIQMTQSPPVLSASVGDRVTLSCKASQNIHNNLDWYQQKHGEAPKLLIFYTNNLQTGIPSRFSGSGSGTDYTLTISSLQPEDVATYYCYQYNSGYTFGAGTKLELK
notes: as for B6

- IC50 [4]: 326 pM
B8: BEW-1B10-B9-C3 (antibody, V domains shown)
VH: EVQLVESGGGLVQPGRSLKLSCAASGFSFSKYDMAWFRQTPTKGLEWVASITTSGVGTYYRDSVKGRFTVSRDNAKSTLYLQMDSLRSEDTATYYCARGYGAMDAWGQGTSVTVSS
VL: DIQMTQSPASLSASLEEIVTITCKASQDIDDYLSWYQQKPGKSPQLVIYAATRLADGVPSRFSGSGSGTQYSLKISRLQVDDSGIYYCLQSSSTPWTFGGGTNLELK
notes: as for B4
